Assay results: publication PMC3218054, “Characterisation of the Interaction of the C-Terminus of the Dopamine D2 Receptor with Neuronal Calcium Sensor-1” (PLoS ONE, 2011)

Target: T1, Neuronal calcium sensor-1 (NCS-1), Rattus norvegicus, wild type (Rattus norvegicus, UniProt P62168 1-190)
T1 construct: NCS-1, Rattus norvegicus; cDNA GenBank L27421; sub-cloned into pET-M11; 15N or 15N,13C labelled for NMR; Monomeric by SEC-MALS; also called wild type NCS-1; source: E. coli BL21 (DE3), purified (Phenyl FF hydrophobic column, TEV cleavage, Superdex 75); not shown: His tag, N-terminal, cleaved
Test: other fluorescence titration; intrinsic tryptophan fluorescence of 1 µM NCS-1 (excitation 280 nm, emission 290-410 nm), peptide added stepwise; 20 mM HEPES, 139 mM NaCl, 2 mM ATP, 5 mM EGTA, 5 mM nitrilotriacetic acid, pH 7.4, 1 µM free Ca2+; room temperature; logistic fit
Conditions: both partners purified

T1 sequence (P62168 whole entry): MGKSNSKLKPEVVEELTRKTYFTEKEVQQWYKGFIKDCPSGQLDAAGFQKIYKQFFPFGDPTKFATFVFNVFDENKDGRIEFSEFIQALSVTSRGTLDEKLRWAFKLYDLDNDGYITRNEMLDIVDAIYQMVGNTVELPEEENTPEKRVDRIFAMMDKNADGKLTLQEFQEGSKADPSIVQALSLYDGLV

EC50: 14.3 µM
stoichiometry N: 2 peptide per NCS-1
B1: D2 peptide, residues 428-443 of the human dopamine D2 receptor (peptide)
peptide: TFNIEFRKAFLKILHC
notes: dopamine D2 receptor, human, residues 428-443, cytoplasmic C-terminal tail; Dissolved first in a minimal amount of DMSO; also called D2 (428-443); dopamine D2 receptor C-terminus; source: synthetic peptide, bought: Peptide Protein Research Ltd
